The target of the assay is full-length (MLD-containing) EBOV glycoprotein GP1,2, wild type (Ebola virus (EBOV), UniProt Q05320). Description: immunostaining of cells or tissue. Conditions: one partner purified.
full-length (MLD-containing) EBOV glycoprotein GP1,2, wild type, sequence (Q05320 33-676): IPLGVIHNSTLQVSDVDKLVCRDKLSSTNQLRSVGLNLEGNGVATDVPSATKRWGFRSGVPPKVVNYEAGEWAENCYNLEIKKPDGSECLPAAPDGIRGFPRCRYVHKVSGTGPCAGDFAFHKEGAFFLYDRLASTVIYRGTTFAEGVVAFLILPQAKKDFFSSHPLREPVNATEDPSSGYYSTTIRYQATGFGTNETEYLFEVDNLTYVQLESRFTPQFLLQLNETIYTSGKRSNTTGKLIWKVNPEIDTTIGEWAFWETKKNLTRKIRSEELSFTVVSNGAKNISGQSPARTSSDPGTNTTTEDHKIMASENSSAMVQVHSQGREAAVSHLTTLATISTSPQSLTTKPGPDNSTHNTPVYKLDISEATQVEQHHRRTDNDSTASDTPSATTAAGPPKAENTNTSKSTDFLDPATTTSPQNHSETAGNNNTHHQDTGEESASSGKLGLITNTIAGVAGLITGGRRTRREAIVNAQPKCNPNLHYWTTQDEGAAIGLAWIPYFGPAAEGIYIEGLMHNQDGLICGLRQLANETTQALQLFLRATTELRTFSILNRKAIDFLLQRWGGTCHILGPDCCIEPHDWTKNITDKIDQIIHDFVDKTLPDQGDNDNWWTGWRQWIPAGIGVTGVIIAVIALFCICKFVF

B1: mAb 9.6.3A6 (3A6 IgG) (antibody, V domains shown)
VH: EVQLLESGGGLVKPGGSLRLSCAASGFTFNEYMMNWVRQPPGKGLEWVSSISGTSTYINYADSVKGRFTISRDNAKNSLYLQMNSLRSDDTAMYYCARGSTGGYWGQGTLITVSS
VL: DIVMTQTPLSSAVTLGQPASISCRSSQRLVHSDGNTYLSWLHQRPGQPPRLLIYKVSLRFSGVPDRFSGSGAGTDFTLKISRVEAEDVGIYYCMQATQFPLTFGGGTKVEIK
notes: copies: 2 + 2
As to B1, the binding result is recorded as “binds”.
